Reference: the nanobody polyreactivity screen of Harvey et al. (2022)

Assay: yeast display, Sf9 membrane polyspecificity reagent, FACS + sequencing; frameworks hold sequencing errors
Outline: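 Galactose-induced (36–48 hours) yeast carrying a synthetic nanobody display library were exposed to 10% biotinylated, detergent-solubilized Sf9 membrane reagent at 4 °C for 1 hour. FACS followed streptavidin microbead enrichment, using low and high (top ~1%) gates for expression (anti-HA) and reagent binding (streptavidin). Colony PCR, MiSeq 2 × 250 sequencing and CDR-length filtering followed. Labels for polyreactivity reflect the gate of origin.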

Sequence | polyreactivity (PSR sort gate)
QVQLVESGGGLVQAGGSLRLSCAASGRTFYSYAMGWYRQAPGKERELVAAMTSDGGTYYADSVKGRFTISRDNAKNTVYLQMNSLKPEDTAVYYCAAELYYWYYYWGQGTKVTVSS | low polyreactivity
QVQLVESGGGLVQAGGSLRLSCAASGSPFGYYAMGWYRQATGKERELVAAITRSGGRTYYADSVKGRFTISRDNAKNTVYLQMNSLKPEDTAVYYCAADRVRRPSPGGMDFWGQGTQVTVSS | high polyreactivity
QVQLVESGGGLDQAGGSLRLSCAASGFTFYPNAMGWYRQAPGKERELVAAINSGGSTYYADSVKGRFTISRDNAKNTVYLQMNSLKPEDTAVYYCAAYGKRGAVAFYYWGQGTQVTVSS | high polyreactivity
QVQLVESVGGLVQAGGILRLSCAPSGSTFDVYAMGWYRQAPAKERELVAAISWTGGSTYYADSVKGRFTISRDNAKNTVYLQMNRLKPEDTAVYYCAAYEIQTPRIAHYVGCGRDYLGQGTQVTVSS | high polyreactivity
QVHLVESGGGLVQAGGSLRLSCDASGITFRRYGMGWYRQAPGKERELVATITSSVGSRTYYADSVKGRFTISRDNAKNTVYLQMNSLKPEDTAVYYCAADHRVYDYEYWGQVTQVTVSS | low polyreactivity
QVQLVESGGGLVEAGGSLSLSCAASGSTFYKYSMGLYRQAPGKESELVAAITGSGVSTYYADSVKGRFTMSRDNAKNTVYLQMNSLKPDDTAVYYCNAESRSRPYTSSYDYWGQGTQVTVSS | high polyreactivity
QVQLEESGGGLVQAGGTLRLSCAASGRIFGWYAMGWYRQPPGKERELVAAISSGGRTNYADSVKGRFTISRDNAKNTVYLQMNSLKPEDTAVYYCNARSTYLPYKFGYDYWGQGTQVTVSS | low polyreactivity
QVQLVESGGGLVQAGGSLRLSCAASGSIIFLYAMGWYRQAPGKERELVASISTSGTTITYYADSVKGRFTISRDNAKNTVYLQMNSLKPEDTAVYYCAADTLYYPYDYWGQGTQVTVSS | low polyreactivity
QVQLVESGGGLVQAGGSLRLSCAASGRTFYYYAMGWYRQAPGKEREFVAAIRFSGGNTYYADSVKGRFTISRDNAKNTVYLQMNSLKPEDTAVYYCAARRLLYKYWTGGPYDYWGQGTQVTVSS | high polyreactivity
QVQLVESGGGLVQAGGSLRLSCAASGRTYPGNAMGWYRPAPGKERELVAAISWSGTRTYYADSVKGRFTISRDNAKNTVYLQMNSLKPEDTAVHFCNVVVKGAWDYYPYDYWGQGTQVTVSS | high polyreactivity
QVQLVESGGGLVQAGGSLRLSCAASGSIFNRNAMGWYRQAPGKERELVAAITRRGGSTYYADSVKGRFTISRDNAKNTVYLQMNSLKPEDTAVYYCAAATRKTEYDYWGQGTQVTVSS | low polyreactivity
QVQLVESGGGLVQAGGTLRLSCAPSGSIFGDYVMGWYRQAPGKEWELVAAINRGGSTYYADSVKGRFTISRDNAKNTVYLQMKSLKPEDTAVYYCAAGYPSWYYGYPYDSWGQGTQVTVSS | low polyreactivity
QVQLVESGGGLVQAGGSLRLSCAASGSIFAVNAMGWYRQAPGKERELVAAITSGGNTYYADSVKGRFTISRDNAKNTVYLQMNSLKPEDTAVYYCATVFSVQGWYFGMNYWGQGTQVTVSS | low polyreactivity
QVHLVESGGGLVQAGGSLRLSCAASGLIFYRYAMGWYRQAPGKERELVATISRGGRTYYADSVKGRFTNSRDNAKNTVYLQMNSLKPEDTAVYYCNADRQWYSIGSWEYDYWGQGTQVTVSS | high polyreactivity
QVQLVESGGGLVQAGGSLRLSCAASGSTFGYNAMGWYRQAPGKERELVAAISNGSDRTYYADSVKGRFTISRDNAKNTVYLQMNSLKPEDTAVYYCAKDRDFSSPPTESGFDYWGQGTQVTVSS | low polyreactivity
QVQLVESGGGLVQAGGSLRLSCAASGRTYGFNVMGWYRQAPGKERELVAAISWSGGSTYYADSVKGRFTISRDNEKNTVYLQMNSLKPEDTAVYYCNKRYVHRYGYWGQGTQVTVSS | low polyreactivity
QVHLVESGGGLVQAGGSLRLSCAASGSIFGSNAMGWYRQAPGKERELVAAISRRGGNTYYADSVKGRFTISRDNAKNTVYLQLNSLKPEDTAVYYCAAPKDPDRVQYDYWGQGTQVTVSS | low polyreactivity
